The text below walks through data of the Human Domainome abundance scans (Beltran et al. 2025).

± gives the uncertainty stated by the source.

The data set can be described thus: abundance fitness (aPCA) (normalised: wild type 0, dead -1); higher = more abundant; growth selection in yeast, the domain comes from the species named. Particulars: Homo sapiens.
The substance “Lipoamide acyltransferase component of branched-chain alpha-keto acid dehydrogenase complex, mitochondrial N185L, P11182” gave an abundance fitness of -0.514 ± 0.26.

Take “Lipoamide acyltransferase component of branched-chain alpha-keto acid dehydrogenase complex, mitochondrial N185M, P11182”: the abundance fitness was -0.273 ± 0.18.

Take “Lipoamide acyltransferase component of branched-chain alpha-keto acid dehydrogenase complex, mitochondrial N185P, P11182”: the abundance fitness is -1.01 ± 0.17.

In the case of “Lipoamide acyltransferase component of branched-chain alpha-keto acid dehydrogenase complex, mitochondrial N185Q, P11182”, the abundance fitness is -0.155 ± 0.11.

Take “Lipoamide acyltransferase component of branched-chain alpha-keto acid dehydrogenase complex, mitochondrial N185R, P11182”: the abundance fitness was -0.165 ± 0.1.

“Lipoamide acyltransferase component of branched-chain alpha-keto acid dehydrogenase complex, mitochondrial N185V, P11182” showed an abundance fitness of -0.744 ± 0.1.

“Lipoamide acyltransferase component of branched-chain alpha-keto acid dehydrogenase complex, mitochondrial N185W, P11182” displayed an abundance fitness of -0.688 ± 0.16.

For “Lipoamide acyltransferase component of branched-chain alpha-keto acid dehydrogenase complex, mitochondrial N207A, P11182”, the abundance fitness is 0.034 ± 0.04.

“Lipoamide acyltransferase component of branched-chain alpha-keto acid dehydrogenase complex, mitochondrial N207C, P11182”: the abundance fitness is -0.302 ± 0.1.

The substance “Lipoamide acyltransferase component of branched-chain alpha-keto acid dehydrogenase complex, mitochondrial N207D, P11182” gave an abundance fitness of -0.009 ± 0.049.

In the case of “Lipoamide acyltransferase component of branched-chain alpha-keto acid dehydrogenase complex, mitochondrial N207E, P11182”, the abundance fitness was -0.043 ± 0.047.

“Lipoamide acyltransferase component of branched-chain alpha-keto acid dehydrogenase complex, mitochondrial N207F, P11182” showed an abundance fitness of -0.339 ± 0.091.

The substance “Lipoamide acyltransferase component of branched-chain alpha-keto acid dehydrogenase complex, mitochondrial N207G, P11182” had an abundance fitness of -0.03 ± 0.042.

As to “Lipoamide acyltransferase component of branched-chain alpha-keto acid dehydrogenase complex, mitochondrial N207I, P11182”, the abundance fitness is -0.261 ± 0.14.

The substance “Lipoamide acyltransferase component of branched-chain alpha-keto acid dehydrogenase complex, mitochondrial N207L, P11182” showed an abundance fitness of -0.048 ± 0.048.

Take “Lipoamide acyltransferase component of branched-chain alpha-keto acid dehydrogenase complex, mitochondrial N207P, P11182”: the abundance fitness is -0.199 ± 0.051.

“Lipoamide acyltransferase component of branched-chain alpha-keto acid dehydrogenase complex, mitochondrial N207Q, P11182” showed an abundance fitness of 0.035 ± 0.066.

“Lipoamide acyltransferase component of branched-chain alpha-keto acid dehydrogenase complex, mitochondrial N207S, P11182” yielded an abundance fitness of -0.017 ± 0.044.

“Lipoamide acyltransferase component of branched-chain alpha-keto acid dehydrogenase complex, mitochondrial N207V, P11182” yielded an abundance fitness of -0.11 ± 0.042.

“Lipoamide acyltransferase component of branched-chain alpha-keto acid dehydrogenase complex, mitochondrial N207W, P11182” had an abundance fitness of -0.183 ± 0.041.

The substance “Lipoamide acyltransferase component of branched-chain alpha-keto acid dehydrogenase complex, mitochondrial N207Y, P11182” registered an abundance fitness of -0.453 ± 0.23.

In turn, “Lipoamide acyltransferase component of branched-chain alpha-keto acid dehydrogenase complex, mitochondrial P175A, P11182” showed an abundance fitness of 0.023 ± 0.044.

For “Lipoamide acyltransferase component of branched-chain alpha-keto acid dehydrogenase complex, mitochondrial P175C, P11182”, the abundance fitness is -0.151 ± 0.062.

“Lipoamide acyltransferase component of branched-chain alpha-keto acid dehydrogenase complex, mitochondrial P175D, P11182”: the abundance fitness is 0.038 ± 0.048.

“Lipoamide acyltransferase component of branched-chain alpha-keto acid dehydrogenase complex, mitochondrial P175E, P11182” registered an abundance fitness of 0.037 ± 0.047.

With “Lipoamide acyltransferase component of branched-chain alpha-keto acid dehydrogenase complex, mitochondrial P175F, P11182”, the abundance fitness was -0.098 ± 0.064.

As for “Lipoamide acyltransferase component of branched-chain alpha-keto acid dehydrogenase complex, mitochondrial P175G, P11182”, the abundance fitness was -0.268 ± 0.035.

The substance “Lipoamide acyltransferase component of branched-chain alpha-keto acid dehydrogenase complex, mitochondrial P175I, P11182” came in with an abundance fitness of -0.133 ± 0.065.

In turn, “Lipoamide acyltransferase component of branched-chain alpha-keto acid dehydrogenase complex, mitochondrial P175K, P11182” returned an abundance fitness of 0.024 ± 0.042.

As to “Lipoamide acyltransferase component of branched-chain alpha-keto acid dehydrogenase complex, mitochondrial P175L, P11182”, the abundance fitness was -0.119 ± 0.056.

In turn, “Lipoamide acyltransferase component of branched-chain alpha-keto acid dehydrogenase complex, mitochondrial P175M, P11182” showed an abundance fitness of -0.051 ± 0.081.

With “Lipoamide acyltransferase component of branched-chain alpha-keto acid dehydrogenase complex, mitochondrial P175N, P11182”, the abundance fitness is -0.096 ± 0.053.

On to “Lipoamide acyltransferase component of branched-chain alpha-keto acid dehydrogenase complex, mitochondrial P175Q, P11182”, for which the abundance fitness was -0.008 ± 0.048.

Substance “Lipoamide acyltransferase component of branched-chain alpha-keto acid dehydrogenase complex, mitochondrial P175R, P11182” gave an abundance fitness of -0.16 ± 0.041.

The substance “Lipoamide acyltransferase component of branched-chain alpha-keto acid dehydrogenase complex, mitochondrial P175S, P11182” gave an abundance fitness of -0.127 ± 0.044.

“Lipoamide acyltransferase component of branched-chain alpha-keto acid dehydrogenase complex, mitochondrial P175T, P11182” yielded an abundance fitness of -0.016 ± 0.052.

In the case of “Lipoamide acyltransferase component of branched-chain alpha-keto acid dehydrogenase complex, mitochondrial P175V, P11182”, the abundance fitness is -0.029 ± 0.043.

Take “Lipoamide acyltransferase component of branched-chain alpha-keto acid dehydrogenase complex, mitochondrial P175W, P11182”: the abundance fitness was -0.136 ± 0.042.

“Lipoamide acyltransferase component of branched-chain alpha-keto acid dehydrogenase complex, mitochondrial P175Y, P11182” showed an abundance fitness of -0.24 ± 0.066.

“Lipoamide acyltransferase component of branched-chain alpha-keto acid dehydrogenase complex, mitochondrial Q212A, P11182” gave an abundance fitness of 0.006 ± 0.036.

“Lipoamide acyltransferase component of branched-chain alpha-keto acid dehydrogenase complex, mitochondrial Q212C, P11182” registered an abundance fitness of -0.047 ± 0.052.

“Lipoamide acyltransferase component of branched-chain alpha-keto acid dehydrogenase complex, mitochondrial Q212D, P11182” returned an abundance fitness of -0.009 ± 0.13.

“Lipoamide acyltransferase component of branched-chain alpha-keto acid dehydrogenase complex, mitochondrial Q212E, P11182” registered an abundance fitness of 0.02 ± 0.043.

“Lipoamide acyltransferase component of branched-chain alpha-keto acid dehydrogenase complex, mitochondrial Q212F, P11182” registered an abundance fitness of -0.392 ± 0.11.

“Lipoamide acyltransferase component of branched-chain alpha-keto acid dehydrogenase complex, mitochondrial Q212G, P11182”: the abundance fitness stood at 0.023 ± 0.034.

On to “Lipoamide acyltransferase component of branched-chain alpha-keto acid dehydrogenase complex, mitochondrial Q212H, P11182”, for which the abundance fitness worked out at 0.011 ± 0.065.
